Source: patent US11702666B2, “Cell-based assay for determining activity in the retinoblastoma pathway” (Medical Diagnostic Laboratories, LLC, priority 2017, dated 2023)

Test system: E2F1/Dp-1 heterodimer
Assay: Rb activity assay (LB-Rb with E2F1-SB, DP1 split luciferase)
Type: cell-based, human
Parameters: key to Observed activity: N—no activity; A—active as WT; R—reduced activity compared to the WT
Conditions: Rb mutants; for % (/wt): activity relative to WT
Description: An assay that could measure the interaction between Rb, E2F1, and Dp-1 was developed. Since Dp-1 forms a heterodimer with E2F1 and that interaction is crucial for Rb/E2F1 binding, the assay was comprised of three components. When two proteins (Rb and E2F1) are in close proximity or in complex, a light signal was observed. For the purposes of the current assay, split-luciferase complementation was used to measure the interaction between Rb and E2F1. The NanoBiT assay system by Promega (Madison, Wis.; Dixon et al., 2015, ACS ChemBiol) was used in our split luciferase complementation design.
FIG. 16 depicts the design of a signal system to measure Rb activity. Under basal conditions inside the cell, Rb was active and interacted with the E2F1/Dp-1 heterodimer. For this assay design, cDNAs of Rb linked to different parts of the luciferase protein, either termed as the “Small BiT” (SB), or “Large BiT” (LB) and E2F1 linked to the opposite portion of the luciferase protein were created. When Rb and E2F1/Dp-1 bind, the NanoBiT parts of the luciferase form a complex and emitted a light signal when the luciferase (NanoGlo) substrate was added.
Using the described assay design, HEK293 CDK DKO cells were transiently transfected with different combinations of SB-Rb or LB-Rb and E2F1-LB or E2F1-SB components containing C-terminal and N-terminal constructs (FIG. 17). Relative intensities generated are presented in FIG. 17 as relative luminescence units (RLU). The data represents a sample experiment where each condition was performed in triplicate and represent mean+SD.
The LB-Rb and E2F1-SB with Dp-1 were tested for Rb activity using known Rb null mutants: R661W and C706F (FIG. 18A). […] Rb in-frame (del35) and out-of frame (del1) deletion mutants (FIG. 18B) were constructed and the observed luciferase activity was close to 0, in particular for del1 mutant, because Rb-E2F1 binding was destroyed.
Within the provided assay design, stable cell lines using the HEK293 CDK DKO cell parent line expressing E2F1-SB and Dp-1 were produced. After selection and screening for positive clones using an LB-Rb-mediated increase in signal, four stable single cell clones were selected and evaluated using different Rb mutants (FIGS. 19A and 19B). The response to E2F1 interaction was also checked by using the plasmid and linear form of DNA. Cell line #37 was selected for all our experiments in assay development due to its favorable response.
The conditions of the assay were further optimized by analyzing different cell numbers and Rb concentrations (FIG. 20). Based on the data, it was decided to use 0.2×10^6 cells/ml and 70 ng of DNA in the assay.
Known null and out/in-frame deletion mutants disrupting E2F1 binding and unknown COSMIC mutants were created to examine the ability of the assay to detect variants in Rb that affect function. We transfected WT or mutated Rb using similar conditions as previously indicated (FIG. 20). […] In addition, the null C706F and deletion (del1) mutants presented a signal close to zero as expected for loss of function mutants that disrupt E2F1 interaction. […] This confirmed that the assay was capable of determining the relative activity level of Rb mutants. The data is provided in Luminescence (RLU) of a single experiment with each condition performed in triplicate and represent average+SD.

E2F1/Dp-1 heterodimer, sequence (Q01094 58-437 limits assumed): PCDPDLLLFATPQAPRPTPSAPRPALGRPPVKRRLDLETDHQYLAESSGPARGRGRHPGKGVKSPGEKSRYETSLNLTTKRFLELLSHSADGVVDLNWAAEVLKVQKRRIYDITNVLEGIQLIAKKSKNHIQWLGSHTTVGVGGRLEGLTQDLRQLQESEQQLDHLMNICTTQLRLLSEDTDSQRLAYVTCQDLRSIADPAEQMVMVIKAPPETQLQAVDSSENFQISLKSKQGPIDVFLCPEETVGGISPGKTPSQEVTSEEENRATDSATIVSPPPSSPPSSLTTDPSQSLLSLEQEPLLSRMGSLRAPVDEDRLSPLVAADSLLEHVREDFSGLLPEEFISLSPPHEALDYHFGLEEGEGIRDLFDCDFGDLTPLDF
E2F1/Dp-1 heterodimer, sequence (Q14186 whole entry, further chain): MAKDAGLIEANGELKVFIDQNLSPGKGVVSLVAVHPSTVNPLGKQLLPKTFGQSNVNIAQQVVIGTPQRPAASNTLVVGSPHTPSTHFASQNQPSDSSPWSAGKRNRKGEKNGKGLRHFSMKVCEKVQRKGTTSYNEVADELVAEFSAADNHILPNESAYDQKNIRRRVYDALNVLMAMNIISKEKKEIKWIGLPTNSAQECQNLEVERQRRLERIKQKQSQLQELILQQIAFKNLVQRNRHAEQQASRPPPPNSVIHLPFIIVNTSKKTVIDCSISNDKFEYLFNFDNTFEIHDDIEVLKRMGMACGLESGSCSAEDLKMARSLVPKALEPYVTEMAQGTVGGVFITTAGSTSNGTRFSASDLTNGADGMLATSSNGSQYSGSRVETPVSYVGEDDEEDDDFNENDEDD

| Molecule | Observed activity | % (/wt) [%] |
| --- | --- | --- |
| Rb L665R: Rb mutant from COSMIC database (protein, UniProt P06400 2-928, looked up, variant L665R) Retinoblastoma-associated …: PPKTPRKTAATAAAAAAEPPAPPPPPPPEEDPEQDSGPEDLPLVRLEFEETEEPDFTALCQKLKIPDHVRERAWLTWEKVSSVDGVLGGYIQKKKELWGICIFIAAVDLDEMSFTFTELQKNIEISVHKFFNLLKEIDTSTKVDNAMSRLLKKYDVLFALFSKLERTCELIYLTQPSSSISTEINSALVLKVSWITFLLAKGEVLQMEDDLVISFQLMLCVLDYFIKLSPPMLLKEPYKTAVIPINGSPRTPRRGQNRSARIAKQLENDTRIIEVLCKEHECNIDEVKNVYFKNFIPFMNSLGLVTSNGLPEVENLSKRYEEIYLKNKDLDARLFLDHDKTLQTDSIDSFETQRTPRKSNLDEEVNVIPPHTPVRTVMNTIQQLMMILNSASDQPSENLISYFNNCTVNPKESILKRVKDIGYIFKEKFAKAVGQGCVEIGSQRYKLGVRLYYRVMESMLKSEEERLSIQNFSKLLNDNIFHMSLLACALEVVMATYSRSTSQNLDSGTDLSFPWILNVLNLKAFDFYKVIESFIKAEGNLTREMIKHLERCEHRIMESLAWLSDSPLFDLIKQSKDREGPTDHLESACPLNLPLQNNHTAADMYLSPVRSPKKKGSTTRVNSTANAETQATSAFQTQKPLKSTSLSLFYKKVYRLAYLRLNTRCERLLSEHPELEHIIWTLFQHTLQNEYELMRDRHLDQIMMCSMYGICKVKNIDLKFKIIVTAYKDLPHAVQETFKRVLIKEEEYDSIIVFYNSVFMQRLKTNILQYASTRPPTLSPIPHIPRSPYKFPSSPLRIPGGNIYISPLKSPYKISEGLPTPTKMTPRSRILVSIGESFGTSEKFQKINQMVCNSDRVLKRSAEGSNPPKPLKKLRFDIEGSDEADGSKHLPGESKFQQKLAEMTSTRTRMQKQKMNDSMDTSNKEEK | N | 5 |
| Rb I724N: Rb mutant from COSMIC database (protein, UniProt P06400 2-928, looked up, variant I724N) Retinoblastoma-associated …: PPKTPRKTAATAAAAAAEPPAPPPPPPPEEDPEQDSGPEDLPLVRLEFEETEEPDFTALCQKLKIPDHVRERAWLTWEKVSSVDGVLGGYIQKKKELWGICIFIAAVDLDEMSFTFTELQKNIEISVHKFFNLLKEIDTSTKVDNAMSRLLKKYDVLFALFSKLERTCELIYLTQPSSSISTEINSALVLKVSWITFLLAKGEVLQMEDDLVISFQLMLCVLDYFIKLSPPMLLKEPYKTAVIPINGSPRTPRRGQNRSARIAKQLENDTRIIEVLCKEHECNIDEVKNVYFKNFIPFMNSLGLVTSNGLPEVENLSKRYEEIYLKNKDLDARLFLDHDKTLQTDSIDSFETQRTPRKSNLDEEVNVIPPHTPVRTVMNTIQQLMMILNSASDQPSENLISYFNNCTVNPKESILKRVKDIGYIFKEKFAKAVGQGCVEIGSQRYKLGVRLYYRVMESMLKSEEERLSIQNFSKLLNDNIFHMSLLACALEVVMATYSRSTSQNLDSGTDLSFPWILNVLNLKAFDFYKVIESFIKAEGNLTREMIKHLERCEHRIMESLAWLSDSPLFDLIKQSKDREGPTDHLESACPLNLPLQNNHTAADMYLSPVRSPKKKGSTTRVNSTANAETQATSAFQTQKPLKSTSLSLFYKKVYRLAYLRLNTLCERLLSEHPELEHIIWTLFQHTLQNEYELMRDRHLDQIMMCSMYGICKVKNIDLKFKINVTAYKDLPHAVQETFKRVLIKEEEYDSIIVFYNSVFMQRLKTNILQYASTRPPTLSPIPHIPRSPYKFPSSPLRIPGGNIYISPLKSPYKISEGLPTPTKMTPRSRILVSIGESFGTSEKFQKINQMVCNSDRVLKRSAEGSNPPKPLKKLRFDIEGSDEADGSKHLPGESKFQQKLAEMTSTRTRMQKQKMNDSMDTSNKEEK | N | 7.4 |

Results, then the molecule that gave them:

| Observed activity | % (/wt) [%] | Molecule |
| --- | --- | --- |
| A | 120 | Rb R798W: Rb mutant from COSMIC database (protein, UniProt P06400 2-928, looked up, variant R798W) Retinoblastoma-associated …: PPKTPRKTAATAAAAAAEPPAPPPPPPPEEDPEQDSGPEDLPLVRLEFEETEEPDFTALCQKLKIPDHVRERAWLTWEKVSSVDGVLGGYIQKKKELWGICIFIAAVDLDEMSFTFTELQKNIEISVHKFFNLLKEIDTSTKVDNAMSRLLKKYDVLFALFSKLERTCELIYLTQPSSSISTEINSALVLKVSWITFLLAKGEVLQMEDDLVISFQLMLCVLDYFIKLSPPMLLKEPYKTAVIPINGSPRTPRRGQNRSARIAKQLENDTRIIEVLCKEHECNIDEVKNVYFKNFIPFMNSLGLVTSNGLPEVENLSKRYEEIYLKNKDLDARLFLDHDKTLQTDSIDSFETQRTPRKSNLDEEVNVIPPHTPVRTVMNTIQQLMMILNSASDQPSENLISYFNNCTVNPKESILKRVKDIGYIFKEKFAKAVGQGCVEIGSQRYKLGVRLYYRVMESMLKSEEERLSIQNFSKLLNDNIFHMSLLACALEVVMATYSRSTSQNLDSGTDLSFPWILNVLNLKAFDFYKVIESFIKAEGNLTREMIKHLERCEHRIMESLAWLSDSPLFDLIKQSKDREGPTDHLESACPLNLPLQNNHTAADMYLSPVRSPKKKGSTTRVNSTANAETQATSAFQTQKPLKSTSLSLFYKKVYRLAYLRLNTLCERLLSEHPELEHIIWTLFQHTLQNEYELMRDRHLDQIMMCSMYGICKVKNIDLKFKIIVTAYKDLPHAVQETFKRVLIKEEEYDSIIVFYNSVFMQRLKTNILQYASTRPPTLSPIPHIPRSPYKFPSSPLWIPGGNIYISPLKSPYKISEGLPTPTKMTPRSRILVSIGESFGTSEKFQKINQMVCNSDRVLKRSAEGSNPPKPLKKLRFDIEGSDEADGSKHLPGESKFQQKLAEMTSTRTRMQKQKMNDSMDTSNKEEK |
| A | 124 | Rb R621S: Rb mutant from COSMIC database (protein, UniProt P06400 2-928, looked up, variant R621S) Retinoblastoma-associated …: PPKTPRKTAATAAAAAAEPPAPPPPPPPEEDPEQDSGPEDLPLVRLEFEETEEPDFTALCQKLKIPDHVRERAWLTWEKVSSVDGVLGGYIQKKKELWGICIFIAAVDLDEMSFTFTELQKNIEISVHKFFNLLKEIDTSTKVDNAMSRLLKKYDVLFALFSKLERTCELIYLTQPSSSISTEINSALVLKVSWITFLLAKGEVLQMEDDLVISFQLMLCVLDYFIKLSPPMLLKEPYKTAVIPINGSPRTPRRGQNRSARIAKQLENDTRIIEVLCKEHECNIDEVKNVYFKNFIPFMNSLGLVTSNGLPEVENLSKRYEEIYLKNKDLDARLFLDHDKTLQTDSIDSFETQRTPRKSNLDEEVNVIPPHTPVRTVMNTIQQLMMILNSASDQPSENLISYFNNCTVNPKESILKRVKDIGYIFKEKFAKAVGQGCVEIGSQRYKLGVRLYYRVMESMLKSEEERLSIQNFSKLLNDNIFHMSLLACALEVVMATYSRSTSQNLDSGTDLSFPWILNVLNLKAFDFYKVIESFIKAEGNLTREMIKHLERCEHRIMESLAWLSDSPLFDLIKQSKDREGPTDHLESACPLNLPLQNNHTAADMYLSPVRSPKKKGSTTSVNSTANAETQATSAFQTQKPLKSTSLSLFYKKVYRLAYLRLNTLCERLLSEHPELEHIIWTLFQHTLQNEYELMRDRHLDQIMMCSMYGICKVKNIDLKFKIIVTAYKDLPHAVQETFKRVLIKEEEYDSIIVFYNSVFMQRLKTNILQYASTRPPTLSPIPHIPRSPYKFPSSPLRIPGGNIYISPLKSPYKISEGLPTPTKMTPRSRILVSIGESFGTSEKFQKINQMVCNSDRVLKRSAEGSNPPKPLKKLRFDIEGSDEADGSKHLPGESKFQQKLAEMTSTRTRMQKQKMNDSMDTSNKEEK |
| A | 132 | Rb V654M: Rb mutant from COSMIC database (protein, UniProt P06400 2-928, looked up, variant V654M) Retinoblastoma-associated …: PPKTPRKTAATAAAAAAEPPAPPPPPPPEEDPEQDSGPEDLPLVRLEFEETEEPDFTALCQKLKIPDHVRERAWLTWEKVSSVDGVLGGYIQKKKELWGICIFIAAVDLDEMSFTFTELQKNIEISVHKFFNLLKEIDTSTKVDNAMSRLLKKYDVLFALFSKLERTCELIYLTQPSSSISTEINSALVLKVSWITFLLAKGEVLQMEDDLVISFQLMLCVLDYFIKLSPPMLLKEPYKTAVIPINGSPRTPRRGQNRSARIAKQLENDTRIIEVLCKEHECNIDEVKNVYFKNFIPFMNSLGLVTSNGLPEVENLSKRYEEIYLKNKDLDARLFLDHDKTLQTDSIDSFETQRTPRKSNLDEEVNVIPPHTPVRTVMNTIQQLMMILNSASDQPSENLISYFNNCTVNPKESILKRVKDIGYIFKEKFAKAVGQGCVEIGSQRYKLGVRLYYRVMESMLKSEEERLSIQNFSKLLNDNIFHMSLLACALEVVMATYSRSTSQNLDSGTDLSFPWILNVLNLKAFDFYKVIESFIKAEGNLTREMIKHLERCEHRIMESLAWLSDSPLFDLIKQSKDREGPTDHLESACPLNLPLQNNHTAADMYLSPVRSPKKKGSTTRVNSTANAETQATSAFQTQKPLKSTSLSLFYKKMYRLAYLRLNTLCERLLSEHPELEHIIWTLFQHTLQNEYELMRDRHLDQIMMCSMYGICKVKNIDLKFKIIVTAYKDLPHAVQETFKRVLIKEEEYDSIIVFYNSVFMQRLKTNILQYASTRPPTLSPIPHIPRSPYKFPSSPLRIPGGNIYISPLKSPYKISEGLPTPTKMTPRSRILVSIGESFGTSEKFQKINQMVCNSDRVLKRSAEGSNPPKPLKKLRFDIEGSDEADGSKHLPGESKFQQKLAEMTSTRTRMQKQKMNDSMDTSNKEEK |
